{"source": "patent US11674959B2", "about": "“Methods for identifying and preparing pharmaceutical agents for activating Tie1 and/or Tie2 receptors” (The Johns Hopkins University, priority 2017, dated 2023)", "molecules": {"B1": {"name": "Ang2: angiopoietin 2, Tie2 ligand (protein)", "chain": "YNNFRKSMDSIGKKQYQVQHGSCSYTFLLPEMDNCRSSSSPYVSNAVQRDAPLEYDDSVQRLQVLENIMENNTQWLMKLENYIQDNMKKEMVEIQQNAVQNQTAVMIEIGTNLLNQTAEQTRKLTDVEAQVLNQTTRLELQLLEHSLSTNKLEKQILDQTSEINKLQDKNSFLEKKVLAMEDKHIIQLQSIKEEKDQLQVLVSKQNSIIEELEKKIVTATVNNSVLQKQQHDLMETVNNLLTMMSTSNSAKDPTVAKEEQISFRDCAEVFKSGHTTNGIYTLTFPNSTEEIKAYCDMEAGGGGWTIIQRREDGSVDFQRTWKEYKVGFGNPSGEYWLGNEFVSQLTNQQRYVLKIHLKDWEGNEAYSLYEHFYLSSEELNYRIHLKGLTGTAGKISSISQPGNDFSTKDGDNDKCICKCSQMLTGGWWFDACGPSNLNGMYYPQRQNTNKFNGIKWYYWKGSGYSLKATTMMIRPADF"}, "B2": {"name": "Ang1: angiopoietin 1, Tie2 ligand (protein)", "chain": "SNQRRSPENSGRRYNRIQHGQCAYTFILPEHDGNCRESTTDQYNTNALQRDAPHVEPDFSSQKLQHLEHVMENYTQWLQKLENYIVENMKSEMAQIQQNAVQNHTATMLEIGTSLLSQTAEQTRKLTDVETQVLNQTSRLEIQLLENSLSTYKLEKQLLQQTNEILKIHEKNSLLEHKILEMEGKHKEELDTLKEEKENLQGLVTRQTYIIQELEKQLNRATTNNSVLQKQQLELMDTVHNLVNLCTKEGVLLKGGKREEEKPFRDCADVYQAGFNKSGIYTIYINNMPEPKKVFCNMDVNGGGWTVIQHREDGSLDFQRGWKEYKMGFGNPSGEYWLGNEFIFAITSQRQYMLRIELMDWEGNRAYSQYDRFHIGNEKQNYRLYLKGHTGTAGKQSSLILHGADFSTKDADNDNCMCKCALMLTGGWWFDACGPSNLNGMFYTAGQNHGKLNGIKWHYFKGPSYSLRSTTMMIRPLDF"}}, "key": {"[1]": {"system": "MEC monolayers", "test": "FITC Transwell permeability assay", "format": "cell-based, human", "settings": "single agent alone; FITC-Dextran 40 kDa, three hours", "method": "The integrity of these junctions is also important for the regulation of monolayer permeability by controlling the size of intercellular openings. The effect of the AXT107 on EC permeability was further investigated by the transendothelial diffusion of FITC-labeled dextran across MEC monolayers seeded onto permeable Transwell® substrates.\n(§1) Human dermal microvascular endothelial cells (Lonza) were maintained at 37° C. and 5% CO2 in EBM-2MV medium (Lonza) and used between passages two through seven. Where applicable, cells were serum starved in EBM-2 medium (Lonza) with no supplements. For FITC-Dextran permeability assays phenol red-free media were used to avoid auto-fluorescence. AXT107 were manufactured at New England Peptide by […], lyophilized, and dissolved in 100% DMSO.\nTranswell, twenty-four-well inserts (Corning) were coated with 7.5 μg/cm^2 FN1 for two hours at 37° C., aspirated, and then dried for thirty minutes at room temperature. Wells were then seeded with 7.5×10^4 MECs in 100 μl of EBM-2 media (without phenol red) and allowed to settle for thirty minutes at room temperature. 1 ml of EGM-2 media was then added to the bottom chamber and an additional 200 μl to the top chamber. The plate was incubated for twenty-four hours at 37° C. after which the media was aspirated and an additional 7.5×10^4 MECs were plated in each well as described above. After forty-eight hours at 37° C., the media was aspirated from both chambers and the cells were washed twice in dPBS containing Ca^2+ and Mg^2+, once with EBM-2 media (without phenol red) and serum starved in EBM-2 media applied to both chambers for two hours at 37° C. After this incubation, 100 μM AXT107 or an equivalent amount of DMSO vehicle was added and incubated for an additional ninety minutes. In the top chamber, the cells were then treated with 200 ng/ml Ang2, 100 ng/ml VEGFA, both, or PBS control and in the bottom chamber, the cells were then treated with 25 μg/ml FITC-Dextran (40 kDa MW). AXT107 was also added in both chambers to maintain a concentration of 100 μM. After three hours, 10 μl was removed from the top chamber of each well and mixed with 90 μl of water in a clear bottom, 96-well plate. Fluorescence values for each sample were calculated using a Perkin Elmer plate reader."}, "[2]": {"system": "Tie2", "test": "Western blot of MEC lysates, Ang1/2 signaling: Tie2 phosphorylation", "format": "cell-based, human", "settings": "ligand alone, no AXT107", "method": "To investigate the effects of the integrin inhibitor AXT107 on Tie2 signaling, confluent monolayers of microvascular endothelial cells (MECs) on fibronectin-coated dishes were treated with various concentrations of AXT107 followed by exposure to the Tie2 ligands Ang1 or Ang2.\nas §1\nFor Ang1/2 signaling investigations, cell culture dishes (10 cm diameter) were coated with 5 μg/ml fibronectin (FN1; Sigma-Aldrich, St. Louis, Mo.) for two hours at 37° C. The FN1 solution was then removed by aspiration and 5×10^6 microvascular endothelial cells (MECs; Lonza, Walkersville, Md.) were plated in EGM-2MV media (Lonza) and cultured for forty-eight hours at 37° C. The cells were then serum starved for sixteen hours in serum-free EGM-2 base media (Lonza). AXT107 (0-100 μM, as indicated) was subsequently added to each culture and incubated for seventy-five minutes at 37° C. The cultures were then treated with 1 mM sodium vanadate (New England Biolabs, Ipswich, Mass.) for fifteen minutes to enhance the phospho-Tie2 signal followed by stimulation with 200 ng/ml angiopoietin (R&D Systems, Minneapolis, Minn.) for an additional fifteen minutes. The cells were then transferred to ice, washed twice with ice cold Dulbecco's phosphate-buffered saline (dPBS) containing Ca^2+ and Mg^2+, and collected by scraping in 500 μl of 1× Blue Loading Buffer (Cell Signaling, Danvers, Mass.). Lysate samples were then sonicated, boiled, and resolved by SDS-PAGE. Specific proteins were identified by Western blot, using the following primary antibodies: Cell Signaling—phospho-Tie2 (Y992) (Cat #: 4221), Tie2 (Cat #: 7403), phospho-Stat3 (Y705) (Cat #: 4113), Stat3 (Cat #: 4904), phospho-Akt (S473) (Cat #: 4058), Akt (Cat #: 9272), phospho-p44/42 MAPK (T202/Y204) (Cat #: 4370), p44/42 MAPK (Cat #: 4695); BD Transduction Laboratories—β1 integrin (Cat #: 610467); Millipore—α5 integrin (Cat #: AB1928) and detected with HRP-conjugated goat anti-rabbit and sheep anti-mouse secondary antibodies (GE healthcare)."}}, "data": [{"molecule": "VEGF [reference compound]", "values": [{"measurement": "FITC-dextran diffusion across the monolayer, agent alone", "setting": "[1]", "result": "appeared to increase permeability (although non-significantly)"}]}, {"molecule": "B1", "values": [{"measurement": "FITC-dextran diffusion across the monolayer, agent alone", "setting": "[1]", "result": "influenced FITC-dextran diffusion across the monolayer"}, {"measurement": "Tie2 phosphorylation by ligand alone", "setting": "[2]", "result": "insignificant effects by itself"}]}, {"molecule": "B2", "values": [{"measurement": "Tie2 phosphorylation by ligand alone", "setting": "[2]", "result": "induced phosphorylation of Tie2"}]}]}
